The target in experiment [1] is T1, human HVEM on cells (HEK293T cells expressing HVEM; Mesenchymal subtype GBM cells) (human, UniProt Q92956 39-283).
T1 sequence (looked up): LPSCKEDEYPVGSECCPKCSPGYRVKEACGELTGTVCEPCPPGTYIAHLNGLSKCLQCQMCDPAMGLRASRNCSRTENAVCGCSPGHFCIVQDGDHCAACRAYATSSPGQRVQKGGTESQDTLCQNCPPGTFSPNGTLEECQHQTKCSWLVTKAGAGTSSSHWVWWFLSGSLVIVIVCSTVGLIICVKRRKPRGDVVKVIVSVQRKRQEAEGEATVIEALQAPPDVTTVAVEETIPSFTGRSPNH
Nature of the experiment: cell-based or functional assay.

Experiment [2] deals with T2, human HVEM extracellular domain recombinant protein (Sino Biological Japan Inc. 10334-H08H) (human, UniProt Q92956 39-202).
T2 construct: extracellular domain; Bought protein
T2 sequence (looked up): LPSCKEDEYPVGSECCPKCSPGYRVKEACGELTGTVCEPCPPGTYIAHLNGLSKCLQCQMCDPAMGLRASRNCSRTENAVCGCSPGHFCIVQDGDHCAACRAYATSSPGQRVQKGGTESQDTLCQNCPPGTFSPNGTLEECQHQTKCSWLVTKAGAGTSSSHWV
Briefly: SPR (BIAcore T200), antibody captured by anti-human IgG on CM5 chip, HVEM extracellular domain as analyte.

The target of experiment [3] is T1, human HVEM on cells (HEK293T cells …). Briefly: cell ELISA on fixed HEK293T cells expressing HVEM, anti-His-HRP detection. Background: In an ELISA, binding on a coated surface is turned into a signal by an enzyme label.
For experiment [4], the target named is T2, human HVEM extracellular domain …. Briefly: SPR (BIAcore T200), biotinylated VHH-3-Avitag on SA chip, HVEM extracellular domain as analyte. (In general: Surface plasmon resonance follows binding to a sensor surface in real time, without labels.)

Data on 5 molecules can be found in patent EP4759829A1 (The University of Tokyo, dated 2025).

Several values for one entry are separate records, joined by “and”; a condition that tells them apart may be missing. Identical values can stand only once.

The term Kd denotes the equilibrium constant for the complex coming apart. One may read the EC50 as the concentration at which the effect is half-maximal. Read a high EC50 as lower potency in that assay.

B1: humanized anti-human HVEM antibody (HVR80) conjugated with monomethyl auristatin E (MMAE) (other)
chain: EVQLVESGGGLVQPGGSLRLSCAASGSIGSIHRWDWYRQAPGKQREWVATLNSEGGPTYADSVEGRFTISRDNSKNTLYLQMNSLRPEDTAVYRCAARTVPFEYWGQGTLVTVSSGPPCPPCPAPEFLGGPSVFLFPPKPKDTLMISRTPEVTCVVVDVSQEDPEVQFNWYVDGVEVHNAKTKPREEQFNSTYRVVSVLTVLHQDWLNGKEYKCKVSNKGLPSSIEKTISKAKGQPREPQVYTLPPSQEEMTKNQVSLTCLVKGFYPSDIAVEWESNGQPENNYKTTPPVLDSDGSFFLYSRLTVDKSRWQEGNVFSCSVMHEALHNHYTQKSLSLSLGK
modifications: conjugated with monomethyl auristatin E (MMAE) using Glyclick ADC MMAE (Genovis AB); site not stated
In the case of B1, in experiment [1], the “IC50 of cell viability of HEK293T-HVEM cells, 3 days” value was 70 ng/ml and 0.9 nM.

B2: humanized anti-human HVEM antibody (HVR80) conjugated with PNU (other)
chain: EVQLVESGGGLVQPGGSLRLSCAASGSIGSIHRWDWYRQAPGKQREWVATLNSEGGPTYADSVEGRFTISRDNSKNTLYLQMNSLRPEDTAVYRCAARTVPFEYWGQGTLVTVSSGPPCPPCPAPEFLGGPSVFLFPPKPKDTLMISRTPEVTCVVVDVSQEDPEVQFNWYVDGVEVHNAKTKPREEQFNSTYRVVSVLTVLHQDWLNGKEYKCKVSNKGLPSSIEKTISKAKGQPREPQVYTLPPSQEEMTKNQVSLTCLVKGFYPSDIAVEWESNGQPENNYKTTPPVLDSDGSFFLYSRLTVDKSRWQEGNVFSCSVMHEALHNHYTQKSLSLSLGK
modifications: conjugated with PNU using Glyclick ADC PNU (Genovis AB); site not stated
In the case of B2, in experiment [1], the “IC50 of cell viability of HEK293T-HVEM cells, 3 days” value was 30 ng/ml and 0.4 nM.

B3: humanized anti-human HVEM antibody (HVR80) (Fc fusion)
chain: EVQLVESGGGLVQPGGSLRLSCAASGSIGSIHRWDWYRQAPGKQREWVATLNSEGGPTYADSVEGRFTISRDNSKNTLYLQMNSLRPEDTAVYRCAARTVPFEYWGQGTLVTVSSGPPCPPCPAPEFLGGPSVFLFPPKPKDTLMISRTPEVTCVVVDVSQEDPEVQFNWYVDGVEVHNAKTKPREEQFNSTYRVVSVLTVLHQDWLNGKEYKCKVSNKGLPSSIEKTISKAKGQPREPQVYTLPPSQEEMTKNQVSLTCLVKGFYPSDIAVEWESNGQPENNYKTTPPVLDSDGSFFLYSRLTVDKSRWQEGNVFSCSVMHEALHNHYTQKSLSLSLGK
notes: Printed molecular weight about 77,000
Regarding B3, the Kd in experiment [2] came out at 59 nM.

B4: alpaca anti-human HVEM antibody (VHH-3), 6×His-tagged (VHH)
VHH: QVQLVESGGGSVQPGGSLRLSCAASGSIGSIHRWDWYRLCPGKQREWVATLNSEGGPTYADSVEGRFTISRDNAKNMVYLQMNSLKPEDTAVYRCSARTVPFEYWGRGTQVTVSS
notes: also called 6×His-tagged VHH-3 antibody; not shown: 6×His tag
The molecule B4 displayed an EC50 in experiment [3] of 1.94 nM.

B5: alpaca anti-human HVEM antibody (VHH-3) tagged C-terminally with biotinylated Avitag (VHH)
VHH: QVQLVESGGGSVQPGGSLRLSCAASGSIGSIHRWDWYRLCPGKQREWVATLNSEGGPTYADSVEGRFTISRDNAKNMVYLQMNSLKPEDTAVYRCSARTVPFEYWGRGTQVTVSS
modifications: biotinylated Avitag at the C-terminus
notes: not shown: C-terminal Avitag (biotinylated)
Turning to B5, in experiment [4], the Kd was found to be 19 nM.
